Measurements from patent publication US20160151511A1, “PROTEINS AND PROTEIN CONJUGATES WITH INCREASED HYDROPHOBICITY” (priority 2014, published 2016).

Tests used:
GLP-1 receptor = target: T1, GLP-1 receptor (Homo sapiens, UniProt P43220); experiment: Cell-based GLP-1 receptor assay, intracellular calcium mobilization in CHO-K1/GLP1/Gα15 (FlexStation); details: Calcium-4
T1 construct: expressed in transfected cells; host or cells: CHO-K1/GLP1/Gα15
Experimental: The intracellular calcium change was measured by FlexStation. […] A lower EC50 indicates a higher activity.

[1] = target: GLP-1 receptor on CHO-K1/GLP1/Gα15 cells (UniProt P43220); experiment: cell-based or functional assay
Chain of GLP-1 receptor on CHO-K1/GLP1/Gα15 cells (P43220 24-463 limits assumed): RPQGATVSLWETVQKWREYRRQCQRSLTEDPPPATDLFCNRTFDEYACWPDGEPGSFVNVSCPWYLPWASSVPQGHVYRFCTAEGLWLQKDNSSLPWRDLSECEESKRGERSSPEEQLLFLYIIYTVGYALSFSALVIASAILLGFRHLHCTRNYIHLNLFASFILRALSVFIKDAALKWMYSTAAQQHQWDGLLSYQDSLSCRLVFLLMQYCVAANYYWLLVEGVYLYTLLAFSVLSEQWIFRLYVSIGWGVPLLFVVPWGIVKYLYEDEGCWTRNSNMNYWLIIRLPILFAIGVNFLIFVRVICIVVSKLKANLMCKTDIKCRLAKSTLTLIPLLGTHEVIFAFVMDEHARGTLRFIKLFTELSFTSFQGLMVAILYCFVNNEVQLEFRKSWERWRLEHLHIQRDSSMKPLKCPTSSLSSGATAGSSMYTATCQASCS

[2] = target: T2, GLP-1 receptor (covalently immobilized on the Biacore biosensor surface) (UniProt P43220 24-145, limits assumed); experiment: Biacore (SPR), GLP-1 receptor covalently immobilized, peptide injected
T2 construct: also called the receptor

T1 sequence (P43220 24-463, species assumed): as the sequence (P43220 24-463 limits assumed) above

Work on “5 kDa-PEG-Cys(37)-GLP-1 (HAEGTFTSDVSSYLEGQAAKEFIAWLVKGRC)” yielded an EC50 (GLP-1 receptor) of 336 nM.

B1: 5 kDa-PEG-Cys(37)-GLP-1 (peptide)
peptide: HAEGTFTSDVSSYLEGQAAKEFIAWLVKGRC
modifications: 5 kDa cysteine-reactive maleimide-PEG on the added Cys at position 37
notes: range 27-56; also called 5 kDa-PEG-GLP-1 (Cys analog); C-terminally PEGylated GLP-1
With B1 the EC50 of intracellular calcium mobilization (Calcium-4, FlexStation RFU) [1] was 336 nM and the Kd [2] was 1600 nM.
